# Laboratory results published in patent US20180346531.
# What was measured:
# [1] = tested on: S1-KRAB ATF (synthetic construct); assay: cell_activity; conditions: luciferase reporter with target site in HEK293T, p<0.05
# [2] = tested on: S1 zinc finger array (six-finger ATF) (synthetic construct); assay: EMSA; conditions: ZBA (10 mM Tris pH 8.5, 90 mM KCl, 1 mM MgCl2, 100 uM ZnCl2), 0.05% NP-40, 0.1 mg/mL BSA, glycerol, room temperature 1.5 h; apparent KD, average of at least …
# [3] = tested on: SR71-KRAB ATF (synthetic construct); assay: cell_activity; conditions: luciferase reporter with target site in HEK293T, p<0.05
sequence,measurement,setting,value
CATGCGTAGGGAGCCGCG (double strand) [S1 target site (18 bp; Snurf promoter)],activity (fold repression),[1],> 5
CCTCTTCGCTATTACGCCAGCCATGCGTAGGGAGCCGCGGAACGTTCGATCGTACTCGAGTCAGGGTG (double strand) [S1 EMSA target],Kd,[2],3 nM
GCAGGACCTGCTGCACTG (double strand) [SR71 target site (18 bp)],activity (fold repression),[3],> 5
